The source of these data is patent publication US20040120923A1 (ARES TRADING S A, published 2004).

This experiment deals with T1, IL-18Rβ extracellular domain (his6-tagged, produced in Cos cells) (UniProt O95256 20-356, limits assumed).
T1 construct: extracellular domain; also called IL-18Rβ-ECD; signalling chain of IL-18R
T1 sequence (looked up): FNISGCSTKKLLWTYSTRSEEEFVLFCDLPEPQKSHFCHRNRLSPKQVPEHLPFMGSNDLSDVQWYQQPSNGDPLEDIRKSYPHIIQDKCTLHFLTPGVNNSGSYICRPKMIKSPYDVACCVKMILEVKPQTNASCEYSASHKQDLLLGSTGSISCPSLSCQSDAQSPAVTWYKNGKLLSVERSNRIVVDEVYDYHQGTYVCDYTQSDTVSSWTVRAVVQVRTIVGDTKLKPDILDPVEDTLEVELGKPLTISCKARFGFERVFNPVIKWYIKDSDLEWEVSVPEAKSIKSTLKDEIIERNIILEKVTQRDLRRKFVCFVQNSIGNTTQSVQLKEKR
The experiment can be described thus: chemical cross-linking of the two extracellular domains without ligand, SDS-PAGE, Western blot with anti-his6 mAb against his6-tagged IL-18Rβ.

B1: IL-18Rα extracellular domain (produced in Cos cells) (receptor, UniProt Q13478 22-329, looked up)
chain: CTSRPHITVVEGEPFYLKHCSCSLAHEIETTTKSWYKSSGSQEHVELNPRSSSRIALHDCVLEFWPVELNDTGSYFFQMKNYTQKWKLNVIRRNKHSCFTERQVTSKIVEVKKFFQITCENSYYQTLVNSTSLYKNCKKLLLENNKNPTIKKNAEFEDQGYYSCVHFLHHNGKLFNITKTFNITIVEDRSNIVPVLLGPKLNHVAVELGKNVRLNCSALLNEEDVIYWMFGEENGSDPNIHEEKEMRIMTPEGKWHASKVLRIENIGESNLNVLYNCTVASTGGTDTKSFILVRKADMADIPGHVFTR
notes: extracellular domain; It is glycosylated (Cos cell product); also called IL-18Rα-ECD
Regarding B1, the binding result was “no binding”.
